Data on one molecule can be found in US20210130437A1.

In this assay the target is human PD-1 and human TIGIT co-expressed on Jurkat cells (Jurkat/PD-1/TIGIT cells) (human). The experiment in a line: flow cytometry, Jurkat/PD-1/TIGIT cells.
Sequence of human PD-1 and human TIGIT co-expressed on Jurkat cells (Jurkat/PD-1/TIGIT cells) (human) (chain, as listed by the source, chain 1 of 2): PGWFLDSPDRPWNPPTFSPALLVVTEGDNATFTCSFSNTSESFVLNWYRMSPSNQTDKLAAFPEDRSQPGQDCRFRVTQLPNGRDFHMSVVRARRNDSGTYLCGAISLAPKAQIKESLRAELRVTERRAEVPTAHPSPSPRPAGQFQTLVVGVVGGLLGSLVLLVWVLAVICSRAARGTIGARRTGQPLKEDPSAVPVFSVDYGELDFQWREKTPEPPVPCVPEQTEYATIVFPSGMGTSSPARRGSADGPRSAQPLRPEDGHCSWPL
Sequence of human PD-1 and human TIGIT co-expressed on Jurkat cells (Jurkat/PD-1/TIGIT cells) (human) (chain, as listed by the source, chain 2 of 2): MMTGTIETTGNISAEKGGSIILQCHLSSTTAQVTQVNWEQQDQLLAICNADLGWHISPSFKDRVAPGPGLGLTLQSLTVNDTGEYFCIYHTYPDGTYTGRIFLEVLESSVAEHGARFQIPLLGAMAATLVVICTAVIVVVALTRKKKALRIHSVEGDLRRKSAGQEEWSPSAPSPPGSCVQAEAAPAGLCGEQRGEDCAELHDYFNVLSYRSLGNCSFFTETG

B1: variant CD155 IgV-Fc P18S/S65W/S67A/L104Q/G111R (Fc fusion)
chain: WPPPGTGDVVVQAPTQVSGFLGDSVTLPCYLQVPNMEVTHVSQLTWARHGESGSMAVFHQTQGPWYAESKRLEFVAARLGAELRNASLRMFGLRVEDEGNYTCQFVTFPQRSRSVDIWLRVLAAAEPKSSDKTHTCPPCPAPELLGGPSVFLFPPKPKDTLMISRTPEVTCVVVDVSHEDPEVKFNWYVDGVEVHNAKTKPCEEQYGSTYRCVSVLTVLHQDWLNGKEYKCKVSNKALPAPIEKTISKAKGQPREPQVYTLPPSREEMTKNQVSLTCLVKGFYPSDIAVEWESNGQPENNYKTTPPVLDSDGSFFLYSKLTVDKSRWQQGNVFSCSVMHEALHNHYTQKSLSLSPGK
For the molecule B1, the MFI at 6.25 nM turned out to be 4890 MFI.
